T1: PUF4 RNA-binding domain (Saccharomyces cerevisiae, UniProt P25339 537-888)
T1 sequence: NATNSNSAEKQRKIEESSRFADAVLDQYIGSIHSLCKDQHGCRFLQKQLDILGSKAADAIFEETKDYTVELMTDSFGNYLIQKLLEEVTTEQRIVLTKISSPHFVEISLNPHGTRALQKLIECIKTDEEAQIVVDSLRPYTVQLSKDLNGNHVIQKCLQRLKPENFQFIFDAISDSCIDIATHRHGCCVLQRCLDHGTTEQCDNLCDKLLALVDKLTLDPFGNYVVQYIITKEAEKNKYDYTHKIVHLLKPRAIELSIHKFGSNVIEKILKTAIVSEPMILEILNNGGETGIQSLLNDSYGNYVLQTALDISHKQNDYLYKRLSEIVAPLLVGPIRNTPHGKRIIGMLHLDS


Target: T1, PUF4 RNA-binding domain
Assay: Mg; RNA-MaP; 20 mM Na-HEPES pH 7.4, 30 mM KOAc, 0.75 mM MgCl2, 0.1% Tween-20, 5% glycerol, 0.1 mg/mL BSA, 2 mM DTT; 25 C; 0.0125-409.6 nM protein
Settings: tags: N-His6-TEV cleaved; C-SNAP kept, Cy3B-labelled; label: tethered on chip by stalled RNA polymerase

| Binder | Kd [nM] |
| --- | --- |
| UCUCUUUCACACUUAUUACGUCUCUU (ssRNA) [Id_ii_S1_P5E.4_K5.3_C5.2_[C-2T]_[T-1C]_H5.3_A5.1_F5.1_T5.2_[T11C]_[A12G]] | > 2300 |
| UCUCUUCCUAUAUUAUUAUCUCUCUU (ssRNA) [Id_ii_S1_P5E.3_K5.2_C5.2_[T-1C]_H5.2_A5.1_F5.1_T5.2_[A12C]] | 532 |
| UCUCUUCUUAUAUUAUUACCUCUCUU (ssRNA) [Id_ii_S1_P5E.3_K5.2_C5.2_H5.2_A5.1_F5.1_T5.2_[T11C]_[A12C]] | 571 |
| UCUCUUUGUAUUAGUGUCUCUU (ssRNA) [Ib_S1_P5E.1_K5.1_C5.1_H5.1_A5.1_F5.1_[T8G]_[A10G]_T5.1] | 386 |
| UCUCUUGCACACUUAUUACGUCUCUU (ssRNA) [Id_ii_S1_P5E.4_K5.3_C5.2_[C-2G]_[T-1C]_H5.3_A5.1_F5.1_T5.2_[T11C]_[A12G]] | > 2300 |
| UCUCUUGUACACUUAUUAAUUCUCUU (ssRNA) [Id_ii_S1_P5E.4_K5.3_C5.2_[C-2G]_H5.3_A5.1_F5.1_T5.2_[T11A]_[A12T]] | 4.75 |
| UCUCUUUGUAUUACUCUCUCUU (ssRNA) [Ib_S1_P5E.1_K5.1_C5.1_H5.1_A5.1_F5.1_[T8C]_[A10C]_T5.1] | 133 |
| UCUCUUCAUAUAUUAUUAUUUCUCUU (ssRNA) [Id_ii_S1_P5E.3_K5.2_C5.2_[T-1A]_H5.2_A5.1_F5.1_T5.2_[A12T]] | 395 |
| UCUCUUGCACACUUAUUAUAUCUCUU (ssRNA) [Id_ii_S1_P5E.4_K5.3_C5.2_[C-2G]_[T-1C]_H5.3_A5.1_F5.1_T5.2] | 766 |
| UCUCUUUCACACUUAUUAACUCUCUU (ssRNA) [Id_ii_S1_P5E.4_K5.3_C5.2_[C-2T]_[T-1C]_H5.3_A5.1_F5.1_T5.2_[T11A]_[A12C]] | > 2300 |
| UCUCUUCAUAUAUUAUUAACUCUCUU (ssRNA) [Id_ii_S1_P5E.3_K5.2_C5.2_[T-1A]_H5.2_A5.1_F5.1_T5.2_[T11A]_[A12C]] | 218 |
| UCUCUUCUUAUAUUAUUAACUCUCUU (ssRNA) [Id_ii_S1_P5E.3_K5.2_C5.2_H5.2_A5.1_F5.1_T5.2_[T11A]_[A12C]] | 476 |
| UCUCUUUGUAUUAGUCUCUCUU (ssRNA) [Ib_S1_P5E.1_K5.1_C5.1_H5.1_A5.1_F5.1_[T8G]_[A10C]_T5.1] | 518 |
| UCUCUUUCACACUUAUUAUGUCUCUU (ssRNA) [Id_ii_S1_P5E.4_K5.3_C5.2_[C-2T]_[T-1C]_H5.3_A5.1_F5.1_T5.2_[A12G]] | > 2300 |
| UCUCUUGCACACUUAUUAUUUCUCUU (ssRNA) [Id_ii_S1_P5E.4_K5.3_C5.2_[C-2G]_[T-1C]_H5.3_A5.1_F5.1_T5.2_[A12T]] | 1420 |
| UCUCUUCAUAUAUUAUUAUCUCUCUU (ssRNA) [Id_ii_S1_P5E.3_K5.2_C5.2_[T-1A]_H5.2_A5.1_F5.1_T5.2_[A12C]] | 180 |
| UCUCUUUCACACUUAUUAAUUCUCUU (ssRNA) [Id_ii_S1_P5E.4_K5.3_C5.2_[C-2T]_[T-1C]_H5.3_A5.1_F5.1_T5.2_[T11A]_[A12T]] | > 2300 |
| UCUCUUCUUAUAUUAUUAGCUCUCUU (ssRNA) [Id_ii_S1_P5E.3_K5.2_C5.2_H5.2_A5.1_F5.1_T5.2_[T11G]_[A12C]] | 122 |
| UCUCUUUGACACUUAUUAUCUCUCUU (ssRNA) [Id_ii_S1_P5E.4_K5.3_C5.2_[C-2T]_[T-1G]_H5.3_A5.1_F5.1_T5.2_[A12C]] | > 2300 |

| Binder | Kd [nM] |
| --- | --- |
| UCUCUUCAUAUAUUAUUAGCUCUCUU (ssRNA) [Id_ii_S1_P5E.3_K5.2_C5.2_[T-1A]_H5.2_A5.1_F5.1_T5.2_[T11G]_[A12C]] | 157 |
| UCUCUUGCACACUUAUUACAUCUCUU (ssRNA) [Id_ii_S1_P5E.4_K5.3_C5.2_[C-2G]_[T-1C]_H5.3_A5.1_F5.1_T5.2_[T11C]] | 1210 |
| UCUCUUGCACACUUAUUAUCUCUCUU (ssRNA) [Id_ii_S1_P5E.4_K5.3_C5.2_[C-2G]_[T-1C]_H5.3_A5.1_F5.1_T5.2_[A12C]] | 1160 |
| UCUCUUGUACACUUAUUAUAUCUCUU (ssRNA) [Id_ii_S1_P5E.4_K5.3_C5.2_[C-2G]_H5.3_A5.1_F5.1_T5.2] | 3.91 |
| UCUCUUCAUAUAUUAUUAGUUCUCUU (ssRNA) [Id_ii_S1_P5E.3_K5.2_C5.2_[T-1A]_H5.2_A5.1_F5.1_T5.2_[T11G]_[A12T]] | 141 |
| UCUCUUCUUAUAUUAUUAGUUCUCUU (ssRNA) [Id_ii_S1_P5E.3_K5.2_C5.2_H5.2_A5.1_F5.1_T5.2_[T11G]_[A12T]] | 82.2 |
| UCUCUUGUACACUUAUUAUCUCUCUU (ssRNA) [Id_ii_S1_P5E.4_K5.3_C5.2_[C-2G]_H5.3_A5.1_F5.1_T5.2_[A12C]] | 2.94 |
| UCUCUUUCACACUUAUUAAAUCUCUU (ssRNA) [Id_ii_S1_P5E.4_K5.3_C5.2_[C-2T]_[T-1C]_H5.3_A5.1_F5.1_T5.2_[T11A]] | > 2300 |
| UCUCUUGGACACUUAUUAUAUCUCUU (ssRNA) [Id_ii_S1_P5E.4_K5.3_C5.2_[C-2G]_[T-1G]_H5.3_A5.1_F5.1_T5.2] | > 2300 |
| UCUCUUCUUAUAUUAUUAUCUCUCUU (ssRNA) [Id_ii_S1_P5E.3_K5.2_C5.2_H5.2_A5.1_F5.1_T5.2_[A12C]] | 491 |
| UCUCUUCUUAUAUUAUUAUUUCUCUU (ssRNA) [Id_ii_S1_P5E.3_K5.2_C5.2_H5.2_A5.1_F5.1_T5.2_[A12T]] | 228 |
| UCUCUUCAUAUAUUAUUAGGUCUCUU (ssRNA) [Id_ii_S1_P5E.3_K5.2_C5.2_[T-1A]_H5.2_A5.1_F5.1_T5.2_[T11G]_[A12G]] | 488 |
| UCUCUUCAUAUAUUAUUACCUCUCUU (ssRNA) [Id_ii_S1_P5E.3_K5.2_C5.2_[T-1A]_H5.2_A5.1_F5.1_T5.2_[T11C]_[A12C]] | 278 |
| UCUCUUUGUAUUACUUUCUCUU (ssRNA) [Ib_S1_P5E.1_K5.1_C5.1_H5.1_A5.1_F5.1_[T8C]_[A10T]_T5.1] | 44.6 |
| UCUCUUGUACACUUAUUACCUCUCUU (ssRNA) [Id_ii_S1_P5E.4_K5.3_C5.2_[C-2G]_H5.3_A5.1_F5.1_T5.2_[T11C]_[A12C]] | 3.22 |
| UCUCUUGCACACUUAUUACUUCUCUU (ssRNA) [Id_ii_S1_P5E.4_K5.3_C5.2_[C-2G]_[T-1C]_H5.3_A5.1_F5.1_T5.2_[T11C]_[A12T]] | 1530 |
| UCUCUUUCACACUUAUUACAUCUCUU (ssRNA) [Id_ii_S1_P5E.4_K5.3_C5.2_[C-2T]_[T-1C]_H5.3_A5.1_F5.1_T5.2_[T11C]] | > 2300 |
| UCUCUUGGACACUUAUUAACUCUCUU (ssRNA) [Id_ii_S1_P5E.4_K5.3_C5.2_[C-2G]_[T-1G]_H5.3_A5.1_F5.1_T5.2_[T11A]_[A12C]] | > 2300 |
| UCUCUUCCUAUAUUAUUAUUUCUCUU (ssRNA) [Id_ii_S1_P5E.3_K5.2_C5.2_[T-1C]_H5.2_A5.1_F5.1_T5.2_[A12T]] | 517 |

| Binder | Kd [nM] |
| --- | --- |
| UCUCUUCUUAUAUUAUUACGUCUCUU (ssRNA) [Id_ii_S1_P5E.3_K5.2_C5.2_H5.2_A5.1_F5.1_T5.2_[T11C]_[A12G]] | 447 |
| UCUCUUCAUAUAUUAUUACUUCUCUU (ssRNA) [Id_ii_S1_P5E.3_K5.2_C5.2_[T-1A]_H5.2_A5.1_F5.1_T5.2_[T11C]_[A12T]] | 321 |
| UCUCUUCUUAUAUUAUUAAUUCUCUU (ssRNA) [Id_ii_S1_P5E.3_K5.2_C5.2_H5.2_A5.1_F5.1_T5.2_[T11A]_[A12T]] | 460 |
| UCUCUUCUUAUAUUAUUACUUCUCUU (ssRNA) [Id_ii_S1_P5E.3_K5.2_C5.2_H5.2_A5.1_F5.1_T5.2_[T11C]_[A12T]] | 439 |
| UCUCUUGUACACUUAUUAUUUCUCUU (ssRNA) [Id_ii_S1_P5E.4_K5.3_C5.2_[C-2G]_H5.3_A5.1_F5.1_T5.2_[A12T]] | 3.73 |
| UCUCUUCUUAUAUUAUUAAAUCUCUU (ssRNA) [Id_ii_S1_P5E.3_K5.2_C5.2_H5.2_A5.1_F5.1_T5.2_[T11A]] | 730 |
| UCUCUUGCACACUUAUUAAUUCUCUU (ssRNA) [Id_ii_S1_P5E.4_K5.3_C5.2_[C-2G]_[T-1C]_H5.3_A5.1_F5.1_T5.2_[T11A]_[A12T]] | 1370 |
| UCUCUUUGUAUUACUGUCUCUU (ssRNA) [Ib_S1_P5E.1_K5.1_C5.1_H5.1_A5.1_F5.1_[T8C]_[A10G]_T5.1] | 71.2 |
| UCUCUUGUACACUUAUUAGCUCUCUU (ssRNA) [Id_ii_S1_P5E.4_K5.3_C5.2_[C-2G]_H5.3_A5.1_F5.1_T5.2_[T11G]_[A12C]] | 5.16 |
| UCUCUUCAUAUAUUAUUAAUUCUCUU (ssRNA) [Id_ii_S1_P5E.3_K5.2_C5.2_[T-1A]_H5.2_A5.1_F5.1_T5.2_[T11A]_[A12T]] | 424 |
| UCUCUUGCACACUUAUUACCUCUCUU (ssRNA) [Id_ii_S1_P5E.4_K5.3_C5.2_[C-2G]_[T-1C]_H5.3_A5.1_F5.1_T5.2_[T11C]_[A12C]] | 1320 |
| UCUCUUCAUAUAUUAUUACGUCUCUU (ssRNA) [Id_ii_S1_P5E.3_K5.2_C5.2_[T-1A]_H5.2_A5.1_F5.1_T5.2_[T11C]_[A12G]] | 440 |
| UCUCUUGUACACUUAUUACUUCUCUU (ssRNA) [Id_ii_S1_P5E.4_K5.3_C5.2_[C-2G]_H5.3_A5.1_F5.1_T5.2_[T11C]_[A12T]] | 5.88 |
| UCUCUUCUUAUAUUAUUACAUCUCUU (ssRNA) [Id_ii_S1_P5E.3_K5.2_C5.2_H5.2_A5.1_F5.1_T5.2_[T11C]] | 471 |
| UCUCUUGCACACUUAUUAACUCUCUU (ssRNA) [Id_ii_S1_P5E.4_K5.3_C5.2_[C-2G]_[T-1C]_H5.3_A5.1_F5.1_T5.2_[T11A]_[A12C]] | 1890 |
| UCUCUUUCACACUUAUUACUUCUCUU (ssRNA) [Id_ii_S1_P5E.4_K5.3_C5.2_[C-2T]_[T-1C]_H5.3_A5.1_F5.1_T5.2_[T11C]_[A12T]] | > 2300 |
| UCUCUUGUACACUUAUUAAAUCUCUU (ssRNA) [Id_ii_S1_P5E.4_K5.3_C5.2_[C-2G]_H5.3_A5.1_F5.1_T5.2_[T11A]] | 3.63 |
| UCUCUUUCACACUUAUUACCUCUCUU (ssRNA) [Id_ii_S1_P5E.4_K5.3_C5.2_[C-2T]_[T-1C]_H5.3_A5.1_F5.1_T5.2_[T11C]_[A12C]] | > 2300 |
| UCUCUUUCACACUUAUUAGCUCUCUU (ssRNA) [Id_ii_S1_P5E.4_K5.3_C5.2_[C-2T]_[T-1C]_H5.3_A5.1_F5.1_T5.2_[T11G]_[A12C]] | > 2300 |

— article PMC9352680, “A comprehensive thermodynamic model for RNA binding by the Saccharomyces cerevisiae Pumilio protein PUF4”
